According to patent US20240209076A1 (KODIAK SCIENCES, published 2024):
Positions count from the first letter of the chain named. Numbers in names are those of the source.

B1: Anti-IL-6 antibody, heavy chain S35H, G66D / light chain WT (antibody, IgG1, V domains shown)
VH: EVQLVESGGGLVQPGGSLRLSCAASGFTFSPFAMHWVRQAPGKGLEWVAKISPGGSWTYYSDTVTDRFTFSLDTSKSTAYLQMNSLRAEDTAVYYCARQLWGYYALDIWGQGTLVTVSS
VL: DIQLTQSPSSLSASVGDRVTITCSASISVSYMYWYQQKPGKAPKLLIYDMSNLASGVPSRFSGSGSGTDFTLTISSLQPEDFATYYCMQWSGYPYTFGQGTKVEIK
notes: IgG1; variable domains only
B2: Anti-IL-6 antibody, heavy chain G66D / light chain M32L, M50D, N52S, M88Q (antibody, IgG1, V domains shown)
VH: B1 VH with H35S
VL: B1 VL with M32L, M50D, N52S, M88Q
notes: IgG1; variable domains only; VL is variant III
B3: Anti-IL-6 antibody, heavy chain G66D / light chain WT (antibody, IgG1, V domains shown)
VH: B1 VH with H35S
VL: B1 VL
notes: IgG1; variable domains only
B4: Anti-IL-6 antibody, heavy chain S35H, G66D, L100A / light chain WT (antibody, IgG1, V domains shown)
VH: B1 VH with L100A
VL: B1 VL
notes: IgG1; variable domains only
B5: Anti-IL-6 antibody, heavy chain S35H, G66D, L100D / light chain M32L, M50D, N52S, M88Q (antibody, IgG1, V domains shown)
VH: B1 VH with L100D
VL: B1 VL with M32L, M50D, N52S, M88Q
notes: as for B2
B6: Anti-IL-6 antibody, heavy chain S35H, G66D, L100D / light chain WT (antibody, IgG1, V domains shown)
VH: B1 VH with L100D
VL: B1 VL
notes: IgG1; variable domains only
B7: Anti-IL-6 antibody, heavy chain S35H, G66D, L100E / light chain M32L, M50D, N52S, M88Q (antibody, IgG1, V domains shown)
VH: B1 VH with L100E
VL: B1 VL with M32L, M50D, N52S, M88Q
notes: as for B2
B8: Anti-IL-6 antibody, heavy chain S35H, G66D, L100E / light chain WT (antibody, IgG1, V domains shown)
VH: B1 VH with L100E
VL: B1 VL
notes: IgG1; variable domains only
B9: Anti-IL-6 antibody, heavy chain S35H, G66D, L100F / light chain M32L, M50D, N52S, M88Q (antibody, IgG1, V domains shown)
VH: B1 VH with L100F
VL: B1 VL with M32L, M50D, N52S, M88Q
notes: as for B2
B10: Anti-IL-6 antibody, heavy chain S35H, G66D, L100F / light chain WT (antibody, IgG1, V domains shown)
VH: B1 VH with L100F
VL: B1 VL
notes: IgG1; variable domains only
B11: Anti-IL-6 antibody, heavy chain S35H, G66D, L100G / light chain WT (antibody, IgG1, V domains shown)
VH: B1 VH with L100G
VL: B1 VL
notes: IgG1; variable domains only
B12: Anti-IL-6 antibody, heavy chain S35H, G66D, L100H / light chain M32L, M50D, N52S, M88Q (antibody, IgG1, V domains shown)
VH: B1 VH with L100H
VL: B1 VL with M32L, M50D, N52S, M88Q
notes: as for B2
B13: Anti-IL-6 antibody, heavy chain S35H, G66D, L100H / light chain WT (antibody, IgG1, V domains shown)
VH: B1 VH with L100H
VL: B1 VL
notes: IgG1; variable domains only
B14: Anti-IL-6 antibody, heavy chain S35H, G66D, L100I / light chain M32L, M50D, N52S, M88Q (antibody, IgG1, V domains shown)
VH: B1 VH with L100I
VL: B1 VL with M32L, M50D, N52S, M88Q
notes: as for B2
B15: Anti-IL-6 antibody, heavy chain S35H, G66D, L100I / light chain WT (antibody, IgG1, V domains shown)
VH: B1 VH with L100I
VL: B1 VL
notes: IgG1; variable domains only
B16: Anti-IL-6 antibody, heavy chain S35H, G66D, L100K / light chain WT (antibody, IgG1, V domains shown)
VH: B1 VH with L100K
VL: B1 VL
notes: IgG1; variable domains only
B17: Anti-IL-6 antibody, heavy chain S35H, G66D, L100P / light chain M32L, M50D, N52S, M88Q (antibody, IgG1, V domains shown)
VH: B1 VH with L100P
VL: B1 VL with M32L, M50D, N52S, M88Q
notes: as for B2
B18: Anti-IL-6 antibody, heavy chain S35H, G66D, L100Q / light chain WT (antibody, IgG1, V domains shown)
VH: B1 VH with L100Q
VL: B1 VL
notes: IgG1; variable domains only
B19: Anti-IL-6 antibody, heavy chain S35H, G66D, L100R / light chain M32L, M50D, N52S, M88Q (antibody, IgG1, V domains shown)
VH: B1 VH with L100R
VL: B1 VL with M32L, M50D, N52S, M88Q
notes: as for B2
B20: Anti-IL-6 antibody, heavy chain S35H, G66D, L100R / light chain WT (antibody, IgG1, V domains shown)
VH: B1 VH with L100R
VL: B1 VL
notes: IgG1; variable domains only
B21: Anti-IL-6 antibody, heavy chain S35H, G66D, L100S / light chain WT (antibody, IgG1, V domains shown)
VH: B1 VH with L100S
VL: B1 VL
notes: IgG1; variable domains only
B22: Anti-IL-6 antibody, heavy chain S35H, G66D, L100T / light chain WT (antibody, IgG1, V domains shown)
VH: B1 VH with L100T
VL: B1 VL
notes: IgG1; variable domains only
B23: Anti-IL-6 antibody, heavy chain S35H, G66D, L100V / light chain WT (antibody, IgG1, V domains shown)
VH: B1 VH with L100V
VL: B1 VL
notes: IgG1; variable domains only
B24: Anti-IL-6 antibody, heavy chain S35H, G66D, L100W / light chain M32L, M50D, N52S, M88Q (antibody, IgG1, V domains shown)
VH: B1 VH with L100W
VL: B1 VL with M32L, M50D, N52S, M88Q
notes: as for B2
B25: Anti-IL-6 antibody, heavy chain S35H, G66D, L100Y / light chain M32L, M50D, N52S, M88Q (antibody, IgG1, V domains shown)
VH: B1 VH with L100Y
VL: B1 VL with M32L, M50D, N52S, M88Q
notes: as for B2
B26: Anti-IL-6 antibody, heavy chain S35H, G66D, L100Y / light chain WT (antibody, IgG1, V domains shown)
VH: B1 VH with L100Y
VL: B1 VL
notes: IgG1; variable domains only
B27: Anti-IL-6 antibody, heavy chain S35H, G66D, Q99A / light chain M32L, M50D, N52S, M88Q (antibody, IgG1, V domains shown)
VH: B1 VH with Q99A
VL: B1 VL with M32L, M50D, N52S, M88Q
notes: as for B2
B28: Anti-IL-6 antibody, heavy chain S35H, G66D, Q99A / light chain WT (antibody, IgG1, V domains shown)
VH: B1 VH with Q99A
VL: B1 VL
notes: IgG1; variable domains only
B29: Anti-IL-6 antibody, heavy chain S35H, G66D, Q99D / light chain M32L, M50D, N52S, M88Q (antibody, IgG1, V domains shown)
VH: B1 VH with Q99D
VL: B1 VL with M32L, M50D, N52S, M88Q
notes: as for B2
B30: Anti-IL-6 antibody, heavy chain S35H, G66D, Q99D / light chain WT (antibody, IgG1, V domains shown)
VH: B1 VH with Q99D
VL: B1 VL
notes: IgG1; variable domains only
B31: Anti-IL-6 antibody, heavy chain S35H, G66D, Q99E / light chain M32L, M50D, N52S, M88Q (antibody, IgG1, V domains shown)
VH: B1 VH with Q99E
VL: B1 VL with M32L, M50D, N52S, M88Q
notes: as for B2
B32: Anti-IL-6 antibody, heavy chain S35H, G66D, Q99E / light chain WT (antibody, IgG1, V domains shown)
VH: B1 VH with Q99E
VL: B1 VL
notes: IgG1; variable domains only
B33: Anti-IL-6 antibody, heavy chain S35H, G66D, Q99F / light chain M32L, M50D, N52S, M88Q (antibody, IgG1, V domains shown)
VH: B1 VH with Q99F
VL: B1 VL with M32L, M50D, N52S, M88Q
notes: as for B2
B34: Anti-IL-6 antibody, heavy chain S35H, G66D, Q99F / light chain WT (antibody, IgG1, V domains shown)
VH: B1 VH with Q99F
VL: B1 VL
notes: IgG1; variable domains only
B35: anti-IL-6 antibody, heavy chain Y104V, light chain WT (antibody, IgG1, V domains shown)
VH: B1 VH with H35S, D66G, Y104V
VL: B1 VL
notes: Full IgG1 tested; V domains derived as in m2

Target: human IL-6 (human, UniProt P05231 30-212)
Sequence (P05231 30-212 limits assumed): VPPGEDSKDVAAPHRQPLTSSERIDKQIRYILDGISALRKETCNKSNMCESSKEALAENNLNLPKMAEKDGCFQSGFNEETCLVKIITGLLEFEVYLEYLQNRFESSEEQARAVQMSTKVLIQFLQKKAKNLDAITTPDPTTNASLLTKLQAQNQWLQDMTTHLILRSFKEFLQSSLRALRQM
Experiment: SPR Biacore, supernatant, Protein A capture, 37 C
Experimental: Those four positions were selected based on their tolerance for mutations as observed in bacterial and mammalian screens. […] These cultures were centrifuged and supernatants containing secreted antibodies were harvested and diluted in HBS-EP+ running buffer (1:20 ratio).
Antibodies were captured on a Protein A chip (GE) by injecting 1:20 cell supernatant dilutions at 10 μL/min for 60 seconds. […] The sensor chip was regenerated by a 60 seconds injection of 10 mM Glycine pH 1.7 at the flow rate of 50 μL/min. […] For this setup, 1 μg/mL of purified antibody was injected over a Protein A chip at 10 μL/min for 25 seconds. […] The sensor chip was regenerated by a 60 seconds injection of 10 mM Glycine pH 1.7 at flow rate of 50 μL/min. Data analysis for supernatant and purified samples were performed using BIAevaluation software (GE). All sensorgrams were double reference subtracted and fit using a 1:1 Langmuir binding model.

Binder	Kd [nM]	koff [s⁻¹]	kon [M⁻¹ s⁻¹]
B1	0.374	0.000548	1.46e+06
B2	0.393	0.000654	1.66e+06
B3	0.296	0.00048	1.62e+06
B4	0.184	0.000833	4.52e+06
B5	0.35	0.00202	5.77e+06
B6	0.447	0.000799	1.79e+06
B7	0.704	0.00145	2.05e+06
B8	0.766	0.000869	1.13e+06
B9	0.422	0.000614	1.46e+06
B10	0.244	0.000612	2.51e+06
B11	0.3	0.00096	3.2e+06
B12	0.83	0.00129	1.55e+06
B13	0.688	0.000498	723000
B14	0.372	0.000712	1.91e+06
B15	0.692	0.000644	931000
B16	0.18	0.00106	5.88e+06
B17	4.66	0.00354	759000

Binder	Kd [nM]	koff [s⁻¹]	kon [M⁻¹ s⁻¹]
B18	0.18	0.00064	3.56e+06
B19	0.878	0.00116	1.32e+06
B20	1.01	0.000957	951000
B21	0.196	0.000644	3.28e+06
B22	0.217	0.000724	3.34e+06
B23	0.244	0.000579	2.37e+06
B24	1.98	0.00124	625000
B25	0.934	0.000801	858000
B26	0.638	0.000642	1.01e+06
B27	3.07	0.0045	1.47e+06
B28	0.717	0.00132	1.85e+06
B29	3.61	–	–
B30	2.34	0.00302	1.29e+06
B31	4.71	0.00089	189000
B32	3.91	0.00193	493000
B33	0.0997	0.000113	1.14e+06
B34	3.39	0.00166	489000

Target: T1, recombinant human IL-6 (human, UniProt P05231 30-212)
T1 construct: Flowed in solution over the captured antibodies
T1 sequence (P05231 30-212 limits assumed): as above
Experiment: SPR (Biacore), supernatant IgG on Protein A, 25 C
Experimental: Antibodies were captured on a Protein A chip (GE) by injecting 1:20 dilution of cell supernatant at 10 μL/min for 60 seconds. […] The sensor chip was regenerated by a 60 seconds injection of 10 mM Glycine pH 1.7 at flow rate of 50 μL/min. […] For this setup, 1 μg/mL of purified antibody was injected over a Protein A chip at 10 μL/min for 25-28 seconds. Data analysis for supernatant and purified samples were performed using BIAevaluation software (GE). All sensorgrams were double reference subtracted and fit using a 1:1 Langmuir binding model.

Binder	Kd [nM]	koff [s⁻¹]	kon [M⁻¹ s⁻¹]
B35	1.34	0.000703	525000
